Columns and labels:
[1] = target: MD145 virus protease (MD145pro) (MD145 virus (norovirus GII/4))
[2] = target: Norwalk virus protease (NVpro) (Norwalk virus (norovirus GI/1)) (UniProt Q83883)
Chain of UniProt Q83883 (Q83883 1101-1281): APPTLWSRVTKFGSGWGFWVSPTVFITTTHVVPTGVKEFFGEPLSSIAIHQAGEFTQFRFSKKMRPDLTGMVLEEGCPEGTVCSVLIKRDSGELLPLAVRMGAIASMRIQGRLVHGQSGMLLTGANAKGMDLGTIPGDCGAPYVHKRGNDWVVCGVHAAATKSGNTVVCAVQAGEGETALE

| Binder | Km of cleavage of the fluorogenic substrate (FRET protease assay) [1] [µM] | Km of cleavage of the fluorogenic substrate (FRET protease assay) [2] [µM] |
| --- | --- | --- |
| edans-EPDFHLQGPEDLAK-dabcyl [edans-…-dabcyl] | 545 | 790 |
| edans-DFHLQGP-dabcyl [edans-DFHLQGP-dabcyl] | 160 | 272 |

From publication PMC3259199
